Laboratory results published in patent publication US20120058906A1 (published 2012).
Blank lines part the entries; values can stand above or below the binder they belong to.

Columns and labels:
[1] = molecular target: T1, rHuman EGF R/Fc Chimera, CF (R&D Systems Cat#344-ER) (human, UniProt P00533 25-645); experiment: ECL (MSD multi-spot) titration, Fab at 1.19 uM; blank spot 24999;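 note: blank spot per well as comparator with Hit at signal to blank ratio of 4 or more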
T1 construct: Bought protein; also called epidermal growth factor receptor; not shown: Fc of the bought chimera

[2] = molecular target: T2, rHuman Notch-1/Fc Chimera, CF (R&D Systems Cat#3647-TK) (human, UniProt P46531 19-526); experiment: as above
T2 construct: Bought protein; not shown: Fc of the bought chimera

[3] = molecular target: T3, rHuman IGF-1 sR, CF (R&D Systems Cat#391-GR) (human, UniProt P08069 31-932); experiment: as above
T3 construct: Bought soluble receptor; also called insulin-like growth factor-1 soluble receptor; IGF-R1

[4] = molecular target: T4, rHuman P-Cadherin/Fc Chimera, CF (R&D Systems Cat#861-PC) (human, UniProt P22223 108-654); experiment: as above
T4 construct: Bought protein; not shown: Fc of the bought chimera

[5] = molecular target: T5, rHuman Erythropoietin R/Fc Chimera, CF (R&D Systems Cat#963-ER) (human, UniProt P19235 25-250); experiment: as above
T5 construct: Bought protein; also called EPO R/Fc; EPOR; not shown: Fc of the bought chimera
T5 sequence: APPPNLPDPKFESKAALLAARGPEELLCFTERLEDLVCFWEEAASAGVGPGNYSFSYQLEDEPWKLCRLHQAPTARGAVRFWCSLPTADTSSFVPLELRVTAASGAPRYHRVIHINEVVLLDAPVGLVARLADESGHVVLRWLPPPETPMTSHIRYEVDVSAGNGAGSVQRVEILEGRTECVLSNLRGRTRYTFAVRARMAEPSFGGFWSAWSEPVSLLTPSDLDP

[6] = molecular target: T6, Recombinant Human DLL4 (R&D Systems Cat#1506-D4/CF) (human, UniProt Q9NR61 27-524); experiment: as above
T6 construct: Bought protein; also called delta-like protein 4

[7] = molecular target: T1, rHuman EGF R/Fc Chimera, CF (R&D …); experiment: ECL (MSD multi-spot) titration, Fab at 0.2975 uM; blank spot 5019;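 note: blank spot per well as comparator with Hit at signal to blank ratio of 4 or more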
[8] = molecular target: T2, rHuman Notch-1/Fc Chimera, CF (R&D …); experiment: as above
[9] = molecular target: T3, rHuman IGF-1 sR, CF (R&D Systems …); experiment: as above
[10] = molecular target: T4, rHuman P-Cadherin/Fc Chimera, CF (R&D …); experiment: as above
[11] = molecular target: T5, rHuman Erythropoietin R/Fc Chimera, CF …; experiment: as above
[12] = molecular target: T6, Recombinant Human DLL4 (R&D Systems …); experiment: as above
[13] = molecular target: T1, rHuman EGF R/Fc Chimera, CF (R&D …); experiment: ECL (MSD multi-spot) titration, Fab at 0.01859 uM; blank spot 1776;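 note: blank spot per well as comparator with Hit at signal to blank ratio of 4 or more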
[14] = molecular target: T2, rHuman Notch-1/Fc Chimera, CF (R&D …); experiment: as above
[15] = molecular target: T3, rHuman IGF-1 sR, CF (R&D Systems …); experiment: as above
[16] = molecular target: T4, rHuman P-Cadherin/Fc Chimera, CF (R&D …); experiment: as above
[17] = molecular target: T5, rHuman Erythropoietin R/Fc Chimera, CF …; experiment: as above
[18] = molecular target: T6, Recombinant Human DLL4 (R&D Systems …); experiment: as above
[19] = molecular target: T1, rHuman EGF R/Fc Chimera, CF (R&D …); experiment: ECL (MSD multi-spot) titration, Fab at 0.07438 uM; blank spot 2504;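 note: blank spot per well as comparator with Hit at signal to blank ratio of 4 or more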
[20] = molecular target: T2, rHuman Notch-1/Fc Chimera, CF (R&D …); experiment: as above
[21] = molecular target: T3, rHuman IGF-1 sR, CF (R&D Systems …); experiment: as above
[22] = molecular target: T4, rHuman P-Cadherin/Fc Chimera, CF (R&D …); experiment: as above
[23] = molecular target: T5, rHuman Erythropoietin R/Fc Chimera, CF …; experiment: as above
[24] = molecular target: T6, Recombinant Human DLL4 (R&D Systems …); experiment: as above
[25] = molecular target: T7, Recombinant Human DLL4 (R&D Systems, Cat#1506-D4/CF) (human, UniProt Q9NR61 27-529); experiment: ECL (MSD) Fab titration; binding affinity estimated from the 50% binding signal
T7 construct: Bought protein; also called rHuman DLL4; delta-like protein 4

- ECL signal [1]: 62500
- ECL signal [2]: 72000
- ECL signal [3]: 35200
- ECL signal [4]: 69700
- ECL signal [5]: 193000
- ECL signal [6]: 74900
- ECL signal [7]: 42200
- ECL signal [8]: 37500
- ECL signal [9]: 17400
- ECL signal [10]: 26000
- ECL signal [11]: 167000
- ECL signal [12]: 34700
- ECL signal [13]: 11800
- ECL signal [14]: 17600
- ECL signal [15]: 3780
- ECL signal [16]: 11700
- ECL signal [17]: 188000
- ECL signal [18]: 18900
- ECL signal [19]: 16600
- ECL signal [20]: 22000
- ECL signal [21]: 5800
- ECL signal [22]: 14800
- ECL signal [23]: 154000
- ECL signal [24]: 20700
B1: Fab VH1-46_IGHD6-13*01_IGHJ4*01 & L2_IGKJ1*01 (Fab, V domains shown)
VH: QVQLVQSGAEVKKPGASVKVSCKASGYTFTSYYMHWVRQAPGQGLEWMGIINPSGGSTSYAQKFQGRVTMTRDTSTSTVYMELSSLRSEDTAVYYCAREGYSSSWYDYFDYWGQGTLVTVSS
VL: not shown
notes: also called Fab No. 7

- Kd [25]: ≤ 10 nM
B2: Fab VH1-46_IGHD6-6*01_IGHJ1*01 & L6_IGKJ1*01 (Fab, V domains shown)
VH: QVQLVQSGAEVKKPGASVKVSCKASGYTFTSYYMHWVRQAPGQGLEWMGIINPSGGSTSYAQKFQGRVTMTRDTSTSTVYMELSSLRSEDTAVYYCAREEYSSSSAEYFQHWGQGTLVTVSS
VL: not shown
notes: Fab from E. coli; VH joined to CH1 with Flag and His tags (Plasmid A), VL to kappa CL (Plasmid C)
